Laboratory results taken from patent US6607880.

Target: T1, 35S-labelled transcription-translation product of p28 Bap31 cDNA
T1 chain: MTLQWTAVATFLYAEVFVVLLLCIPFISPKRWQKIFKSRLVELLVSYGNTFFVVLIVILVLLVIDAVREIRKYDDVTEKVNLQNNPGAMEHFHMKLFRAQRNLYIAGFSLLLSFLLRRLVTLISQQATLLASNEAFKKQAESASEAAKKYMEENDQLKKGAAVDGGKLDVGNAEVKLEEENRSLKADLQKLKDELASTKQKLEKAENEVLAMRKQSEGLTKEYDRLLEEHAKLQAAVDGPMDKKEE

Protein | amount of p20 cleavage product (Phosphorimager) | cleavage of 35S-labelled p28 Bap31 in vitro (SDS-PAGE)
FLICE (caspase-8) (protein) SESQTLDKVYQMKSKPRGYCLIINNHNFAKAREKVPKLHSIRDRNGTHLDAGALTTTFEELHFEIKPHDDCTVEQIYEILKIYQLMDHSNMDCFICCILSHGDKGIIYGTDGQEAPIYELTSQFTGLKCPSLAGKPKVFFIQACQGDNYQKGIPVETDSEEQPYLEMDLSSPQTRYIPDEADFLLGMATVNNCVSYRNPAEGTWYIQSLCQSLRERCPRGDDILTILTEVNYEVSNKDDKKNMGKQMPQPTFTLRKKLVFPSD | p28 Bap31 was more sensitive to cleavage by FLICE (caspase-8) than ICE (caspase-1) | –
ICE (caspase-1) (protein) NPAMPTSSGSEGNVKLCSLEEAQRIWKQKSAEIYPIMDKSSRTRLALIICNEEFDSIPRRTGAEVDITGMTMLLQNLGYSVDVKKNLTASDMTTELEAFAHRPEHKTSDSTFLVFMSHGIREGICGKKHSEQVPDILQLNAIFNMLNTKNCPSLKDKPKVIIIQACRGDSPGVVWFKDSVGVSGNLSLPTTEEFEDDAIKKAHIEKDFIAFCSSTPDNVSWRHPTMGSVFIGRLIEHMQEYACSCDVEEIFRKVRFSFEQPDGRAQMPTTERVTLTRCFYLFPGH | – | ICE (caspase-1), on the other hand, generated two products (denoted “a” and “b”) whose apparent sizes in SDS gels (approximately 27 kDA and 20 kDa, respectively)
